Data published in US11883498B2, “Luteinizing hormone-releasing hormone receptor (LHRH-R) conjugates and uses thereof” (priority 2016, dated 2024).
Where two headings read alike, the source gives them in different places.

How the values were obtained:
[1] = test system: MDA-MB231 tumor xenografts; assay: In vivo fluorescence imaging and biodistribution, MDA-MB231 xenografts
Procedure: (§1) In vivo fluorescence imaging and biodistribution. For the development of subcutaneous tumor xenografts, MDA-MB231, OVCAR-3 and HEC-1B 5×10^6 cells in 0.2 ml sterile PBS were injected subcutaneously in the right hind flank of the female nu/nu mice. Tumor imaging was initiated once the tumor volume reached between 200 mm^3 to 300 mm^3. Each tumor-bearing mice was intravenously injected (via tail vein) with the 10 nano moles of fluorescence dye conjugate either in the presence or absence of a 100-fold excess of the unlabeled conjugate. Animals were euthanized two hours post injection using CO2 and the images were acquired using Caliper IVIS Luminal II. After performing the whole body image, the organs of interest were harvested and imaged to inspect the accumulation of the fluorescence in these organs. The image acquisition parameters were as follows: i) lamp level-high, ii) excitation-745 nm, iii) emission-ICG, iv) binning (M) 4M, (v) f-stop-4, (vi) FOV-12.5, (vii) acquisition time, 1 s. All final conjugates were purified by HPLC prior to its use in in-vitro and in vivo studies.
To determine the efficiency of the conjugates to target the receptor positive tumor in vivo female nu/nu athymic nude mice were subcutaneously implanted with either MCF7, MDA-MB231, OVCAR3 or HEC-1B. Once the tumor reached an appropriate volume the mice were injected intravenously with the dye conjugates (10 nmoles) either in the presence or absence of the excess of the unlabeled targeting molecule. Mice were imaged 2 h post injection to investigate the accumulation of the dye conjugates in tumor and other vital organs.
(§2) Mice were treated intravenously with the dye conjugate either in the presence or absence of 100-fold excess of the unlabeled conjugates. […] All the images were acquired 2 h post injection. List of organs from top to bottom: Tumor, heart, lungs, pancreas, spleen, muscle, skin, small intestine, large intestine, stomach, liver, and kidney.
as §2, with “Tumor, brain,” for “Tumor,”, “stomach,” for “pancreas, spleen, muscle, skin,”, “muscle, pancreas, spleen,” for “stomach,”
Time course study. The effectiveness of JL-L3-S0456 to accumulate in the receptor-positive tumors were further inspected by injection the dye conjugate in ovarian cancer and endometrial xenografts. […] To investigate the retention time of the dye conjugate in the tumor a time-course study was performed. Mice were injected with 10 nmoles of the dye conjugates and imaged at 2 h, 8 h, and 12 h.

[2] = test system: OVCAR3 tumor xenografts; details: ovarian cancer xenografts, 2 h post injection
Procedure: as §1
(§3) To determine the efficiency of the conjugates to target the receptor positive tumor in vivo female nu/nu athymic nude mice were subcutaneously implanted with either MCF7, MDA-MB231, OVCAR3 or HEC-1B. […]

[3] = test system: HEC-1B tumor xenografts; details: endometrial xenografts, 2 h post injection
Procedure: as §1, §3

[4] = test system: MDA-MB-231 tumors; assay: In vivo efficacy of tubulysin B hydrazide conjugate, LHRH-R positive tumors; design: species or system mice
Procedure: (§4) Tumor model and therapy: 5-6 weeks old female nu/nu athymic nude mice were subcutaneously injected with 5.0×10^6 breast cancer cells MDA-MB231 and ovarian cancer cells SKVO3 into their shoulders. Tumors were measured in two perpendicular directions 3 times per week with Vernier calipers, and their volumes were calculated as 0.5×L×W^2, where L is the longest axis (in millimeters), and W is the axis perpendicular to L (in millimeters). Treatment was initiated once the tumor volume reached ˜100 mm^3. Dosing solutions were prepared in sterile saline and injected intravenously. […] Mice were administered with the test agents 3 times per week for 3 weeks and as a measure of gross toxicity mice were simultaneously weighed at each dosing.
In vivo efficacy of tubulysin B hydrazide conjugate: To investigate the efficacy of JL tubulysin conjugate nu/nu athymic nude bearing LHRH-R positive tumors (MDA-MB-231, breast cancer) were randomly divided into three groups: saline control, targeted, and competition and were then treated with test agents 3 days per week for 3 weeks. LHRH-R positive (MDA-MB-231) and negative (SKOV3) cancer cells were s.c implanted in to nu/nu athymic mice and treatment was initiated once the tumor volume reached ˜100 mm^3. Mice were randomized into several groups with 5 mice in each group. […] All the test agents were administered intravenously through tail vein. The mice in control and competition group were euthanized after the last doing whereas the mice in treatment group were continuously monitored for recurrence of tumor and weight loss. […] (FIG. 22A, The dotted vertical line indicates the day of final dosing (day 36)) Without intending to be bound by theory, this further confirmed that the efficacy of targeted tubulysin B hydrazide conjugate is receptor mediated. Moreover, to comprehensively test the anti-tumor efficacy of targeted conjugate (JL-L3-TubBH), mice bearing LHRH-R negative tumors (SKOV3, ovarian cancer) were divided into similar groups as MDA-MB-231 tumor bearing mice and a similar treatment regimen was followed. […] (FIGS. 22B & 22D)
After completion of the treatment the mice in MDA-MB-231 targeted group were monitored and kept on regular chow diet for next five weeks. During this time period the tumor volume and weight was monitored three time a week. (FIG. 23) Mice were treated with the LHRH-R targeted tubulysin B hydrazide conjugate (JR-L3-TubBH) for thrice a week for 3 weeks (n=5). After completion of the study tumor volume and weight of mice was continuously monitored till 75 days post tumor implantation. The dotted vertical line specifies the last day of dosing.

[5] = test system: SKOV3 tumors; assay: In vivo efficacy of tubulysin B hydrazide conjugate, LHRH-R negative tumors; design: species or system mice; details: 2 μmol/kg i.v., 3 times per week for 3 weeks
Procedure: as §4
In vivo efficacy of tubulysin B hydrazide conjugate: To investigate the efficacy of JL tubulysin conjugate nu/nu athymic nude bearing LHRH-R positive tumors (MDA-MB-231, breast cancer) were randomly divided into three groups: saline control, targeted, and competition and were then treated with test agents 3 days per week for 3 weeks. […] The mice in control and competition group were euthanized after the last doing whereas the mice in treatment group were continuously monitored for recurrence of tumor and weight loss. […]

[6] = test system: SKOV3 cells; type: cell-based, human; details: receptor negative cell line, 2 h exposure + 66 h
Procedure: (§5) In vitro determination of cell viability. MDA-MB231 and SKVO3 cells were seeded at a concentration of 10,000 cells per well on a 24 well plate and allowed to grow in monolayers. […] After incubating for 2 h at 37° C., cells were rinsed three times with fresh medium and then incubated in 0.5 ml fresh medium for an additional 66 h at 37° C. Sent medium was then replaced with 0.5 ml of medium containing ^3H-thymidine and incubated for additional 4 h. Cells were then again washed three times with the fresh medium and then incubated with 0.5 ml of 2.5% trichloroacetic acid for 10 min at room temperature. After removing the trichloroacetic acid, cells were dissolved in 0.25 N NaOH. Cell viability was determined by counting the incorporation of ^3H-thymidine in cells using scintillation counter (Packard, Packard Instrument Company). The IC50 value was derived from a plot of the percent of ^3H-thymidine incorporation versus log concentration using Graph Pad Prism 4.
(§6) In vitro cytotoxicity of tubulysin B hydrazide conjugate: To inspect the killing efficiency of the therapeutic conjugate, MDA-MB231 and SKOV3 cancer cells were incubated with various concentrations of JL-L3-TubBH either in the presence or absence of excess JL-L3, for 2 h at 37° C. After washing off the excess conjugate, the cells were incubated in fresh media for an additional 66 h followed by incubation with media containing ^3H-thymidine to assess cell viability. Radioactivity was counted using PerkinElmer's scintillation counter. The same procedure was repeated after exposing the cells to the free tubulysin B hydrazide.

[7] = test system: MDA-MB231 cells; type: cell-based, human; details: 2 h exposure + 66 h
Procedure: as §5, §6

[8] = 10 nmoles i.v., 2 h post injection
[9] = 2 μmol/kg i.v., 3 times per week for 3 weeks
[10] = monitored five weeks after treatment, till 75 days post tumor implantation

| Structure (SMILES) | Kidney fluorescence [1, 8] | Liver fluorescence [1, 8] | Tumor uptake [1, 8] | Competition of tumor uptake by unlabeled JL-L3 ([1]; 100-fold excess of unlabeled conjugate, 2 h post injection) | Tumor fluorescence intensity at 12 h compared with 2 h post injection ([1]; time course, 10 nmoles, imaged at 2 h, 8 h, 12 h) | Tumor uptake [2] | Tumor uptake [3] | Anti-tumor effect (tumor volume), competition group ([4]; 2 μmol/kg i.v. with 100-fold excess of JL-L3, 3 times per week for 3 weeks) | Anti-tumor effect (tumor volume) [4, 9] | Body weight loss (gross toxicity) [4, 9] | Tumor growth after end of treatment [4, 10] | Weight loss after end of treatment [4, 10] | Body weight loss (gross toxicity) [5] | Anti-tumor effect (tumor volume) ([5]; receptor negative tumors) | IC50 [6] [nM] | IC50 ([7]; 3H-thymidine incorporation, read-out: IC50) [nM] | IC50 ([7]; excess JL-L3 (100-fold), read-out: IC50 in the presence of an excess of competition ligand) [nM] |
| --- | --- | --- | --- | --- | --- | --- | --- | --- | --- | --- | --- | --- | --- | --- | --- | --- | --- |
| Cc1c(-c2cccc(CCC(=O)NCCCCCCCC(=O)N[C@H](CCC(=O)NC[C@H](O)[C@@H](O)[C@H](O)[C@H](O)CO)C(=O)N[C@H](CCC(=O)O)C(=O)N[C@H](CCC(=O)NC[C@H](O)[C@@H](O)[C@H](O)[C@H](O)CO)C(=O)N[C@H](CSC3CC(=O)N(CCNC(=O)CCc4ccc(OC5=C(/C=C/C6=[N+](CCCCS(=O)(=O)O)c7ccc(S(=O)(=O)[O-])cc7C6(C)C)CCC/C5=C\C=C5\N(CCCCS(=O)(=O)O)c6ccc(S(=O)(=O)O)cc6C5(C)C)cc4)C3=O)C(=O)O)c2)c(=O)n(C[C@@H](N)c2ccccc2)c(=O)n1Cc1c(F)cccc1F (some centres unmarked) [JL-L3-S0456] | high fluorescence | none or very minimal fluorescence | accumulated in the breast cancer tumor | able to compete the tumor uptake | only a very slight decrease in the intensity | receptor-mediated uptake | receptor-mediated uptake | – | – | – | – | – | – | – | – | – | – |
| CCCC(=O)OCN(C(=O)[C@@H](NC(=O)C1CCCCN1C)C(C)CC)[C@H](C[C@@H](OC(C)=O)c1nc(C(=O)N[C@@H](Cc2ccc(O)cc2)C[C@H](C)C(=O)NNC(=O)OCCSSC[C@@H](NC(=O)[C@@H](CCC(=O)NC[C@H](O)[C@@H](O)[C@H](O)[C@H](O)CO)NC(=O)[C@@H](CCC(=O)O)NC(=O)[C@@H](CCC(=O)NC[C@H](O)[C@@H](O)[C@H](O)[C@H](O)CO)NC(=O)CCCCCCCNC(=O)CCc2cccc(-c3c(C)n(Cc4c(F)cccc4F)c(=O)n(C[C@@H](N)c4ccccc4)c3=O)c2)C(=O)O)cs1)C(C)C (some centres unmarked) [JL-L3-TubBH] | – | – | – | – | – | – | – | did not show any decline in tumor growth | complete elimination of the tumor | None of the mice either bearing MDA-MB-231 or SKVO3 experiences significant weight loss | None of the mice showed any indication of tumor growth and weight loss | None of the mice showed any indication of tumor growth and weight loss | None of the mice either bearing MDA-MB-231 or SKVO3 experiences significant weight loss | no reduction in tumor volume | 608 | 26 | 382 |
